Results taken from the Immune Epitope Database (IEDB).

What was measured:
[1] = target: HLA-A*24:02; test: IEDB peptide-MHC binding, purified MHC/competitive/fluorescence; ≥ and ≤ were set here for values at or beyond the usual limits of such assays
[2] = target: HLA-A*69:01; test: IEDB peptide-MHC binding, purified MHC/direct/fluorescence; filed as Kd, often an IC50 or EC50 that approximates it; ≥ and ≤ were set here for values at or beyond the usual limits of such assays
[3] = target: HLA-A*26:01; test: as above
[4] = target: HLA-A*01:01; test: as above
[5] = target: HLA-B*58:01; test: as above
[6] = target: HLA-B*44:02; test: as above
[7] = target: HLA-A*03:01; test: as above
[8] = target: HLA-A*11:01; test: as above
[9] = target: HLA-B*27:05; test: as above
[10] = target: HLA-B*15:01; test: as above
[11] = target: HLA-B*07:02; test: as above
[12] = target: HLA-A*02:01; test: as above
[13] = target: HLA-A*31:01; test: as above
[14] = target: HLA-B*40:01; test: as above
[15] = target: HLA-B*08:01; test: as above
[16] = target: HLA-B*57:01; test: IEDB peptide-MHC binding, purified MHC/competitive/radioactivity; filed as Kd, often an IC50 or EC50 that approximates it; ≥ and ≤ were set here for values at or beyond the usual limits of such assays
[17] = target: HLA-B*08:01; test: as above
[18] = target: HLA-A*11:01; test: IEDB peptide-MHC binding, purified MHC/competitive/fluorescence; ≥ and ≤ were set here for values at or beyond the usual limits of such assays
[19] = target: HLA-B*15:01; test: IEDB peptide-MHC binding, purified MHC/competitive/radioactivity; filed as Kd, often an IC50 or EC50 that approximates it; ≥ and ≤ were set here for values at or beyond the usual limits of such assays; details: source organism: Dengue virus 1 Brazil/97-11/1997
[20] = target: HLA-B*15:01; test: IEDB peptide-MHC binding, purified MHC/competitive/fluorescence; filed as Kd, often an IC50 or EC50 that approximates it; ≥ and ≤ were set here for values at or beyond the usual limits of such assays; details: source organism: Yersinia bercovieri ATCC 43970
[21] = target: HLA-A*02:01; test: as above; details: source organism: Yersinia bercovieri ATCC 43970
[22] = target: HLA-B*39:01; test: as above; details: source organism: Yersinia bercovieri ATCC 43970
[23] = target: HLA-A*26:01; test: as above; details: source organism: Bacillus anthracis str. A0488
[24] = target: HLA-A*02:01; test: IEDB peptide-MHC binding, purified MHC/competitive/fluorescence; ≥ and ≤ were set here for values at or beyond the usual limits of such assays; details: source organism: Zaire ebolavirus
[25] = target: HLA-A*24:03; test: IEDB peptide-MHC binding, purified MHC/direct/fluorescence; filed as Kd, often an IC50 or EC50 that approximates it; ≥ and ≤ were set here for values at or beyond the usual limits of such assays; details: source organism: Toxoplasma gondii
[26] = target: HLA-B*54:01; test: IEDB peptide-MHC binding, purified MHC/competitive/radioactivity; filed as Kd, often an IC50 or EC50 that approximates it; ≥ and ≤ were set here for values at or beyond the usual limits of such assays; details: source organism: Mammarenavirus lassaense
[27] = target: HLA-A*03:01; test: IEDB peptide-MHC binding, purified MHC/competitive/fluorescence; filed as Kd, often an IC50 or EC50 that approximates it; ≥ and ≤ were set here for values at or beyond the usual limits of such assays; details: source organism: Influenza A virus (A/equine/California/8560/2002(H3N8))
[28] = source organism: Zaire ebolavirus
[29] = source organism: Vibrio parahaemolyticus
[30] = source organism: Dengue virus 1 Brazil/97-11/1997
[31] = source organism: Vaccinia virus WR
[32] = source organism: Toxoplasma gondii
[33] = source organism: Shigella flexneri

For SNTTGKLIW, which IC50 [1, 28] is on record?
The IC50 was 9.97 µM.

With EEDLPVTWR as the sequence, how does the Kd [2, 29] read?
Its Kd is at least 20 µM.

What about the Kd [3, 29] of the same sequence?
Its Kd is at least 20 µM.

What about the Kd [4, 29] of the same sequence?
Its Kd is at least 20 µM.

What about the Kd [5, 29] of the same sequence?
Its Kd is at least 20 µM.

And the Kd [6, 29]?
The Kd was at least 20 µM.

And the Kd [7, 29]?
Its Kd is at least 20 µM.

What about the Kd [8, 29] of the same sequence?
The Kd was at least 20 µM.

What about the Kd [9, 29] of the same sequence?
Its Kd is at least 20 µM.

And the Kd [10, 29]?
The Kd was at least 20 µM.

What about the Kd [11, 29] of the same sequence?
The Kd was at least 20 µM.

And the Kd [12, 29]?
Its Kd is at least 20 µM.

What about the Kd [13, 29] of the same sequence?
Its Kd is at least 20 µM.

What about the Kd [14, 29] of the same sequence?
The Kd was at least 20 µM.

What about the Kd [15, 29] of the same sequence?
The Kd was at least 20 µM.

Which Kd [16, 30] does the source give for GTSITQKGII here?
Its Kd is 9.33 µM.

Which Kd ([17]; source organism: Vaccinia virus Copenhagen) does the source give for MLILNFCKL here?
Its Kd is 0.00391 µM.

Which results are given for EYRFLVINR?
IC50 [18, 31]: ≥ 490 µM; IC50 [1, 31]: 57.6 µM

How did the IC50 ([1]; source organism: Vaccinia virus) turn out when KDVSYNDYF was run?
The IC50 was 41.4 µM.

With IMAIGIVSIL as the sequence, how does the Kd [19] read?
The Kd was 0.0272 µM.

What about the Kd [17, 30] of the same sequence?
The Kd was 0.445 µM.

WFSRENSYSG was tested. Which Kd ([16]; source organism: Dengue virus 3 Martinique/1243/1999) did it give?
Its Kd is 7 µM.

What does the source list for WQMFMKVTV?
Kd [20]: 1.29 µM; Kd [21]: 0.0156 µM; Kd [22]: 0.389 µM

With NTVKSFLNF as the sequence, how does the Kd [23] read?
The Kd was 0.269 µM.

Which results are given for SFQQTNAMV?
IC50 [24]: 31.7 µM; IC50 [1, 28]: 18.1 µM

For ALMRRIAVV, which Kd [17, 31] is on record?
Its Kd is 1.35 µM.

What does the source list for AYMDRKSFK?
Kd [2, 32]: ≥ 20 µM; Kd [3, 32]: ≥ 20 µM; Kd [4, 32]: ≥ 20 µM; Kd [5, 32]: ≥ 20 µM; Kd [6, 32]: ≥ 20 µM; Kd [7, 32]: 14.7 µM; Kd [8, 32]: ≥ 5 µM; Kd [9, 32]: ≥ 20 µM; Kd [10, 32]: ≥ 20 µM; Kd [11, 32]: ≥ 20 µM; Kd [25]: 2.43 µM; Kd [12, 32]: ≥ 20 µM; Kd [14, 32]: ≥ 20 µM; Kd [15, 32]: ≥ 20 µM

MCISLSTAI was tested. Which Kd [26] did it give?
Its Kd is 0.601 µM.

FFKFSFMYI was tested. Which Kd [17, 31] did it give?
The Kd was 0.84 µM.

How did the Kd ([16]; source organism: Dengue virus 3 Sri Lanka/1266/2000) turn out when KTSLCLMMIL was run?
Its Kd is 0.00968 µM.

With VVISKKDTY as the sequence, how does the Kd [2, 33] read?
Its Kd is at least 20 µM.

And the Kd [3, 33]?
The Kd was 6.93 µM.

And the Kd [4, 33]?
Its Kd is at least 20 µM.

And the Kd [5, 33]?
The Kd was at least 20 µM.

What about the Kd [6, 33] of the same sequence?
The Kd was at least 20 µM.

And the Kd [7, 33]?
Its Kd is at least 20 µM.

What about the Kd [8, 33] of the same sequence?
The Kd was 2.96 µM.

And the Kd [9, 33]?
Its Kd is at least 20 µM.

And the Kd [10, 33]?
The Kd was at least 20 µM.

What about the Kd [11, 33] of the same sequence?
Its Kd is at least 20 µM.

And the Kd [12, 33]?
The Kd was at least 20 µM.

And the Kd [13, 33]?
The Kd was 5.5 µM.

What about the Kd [14, 33] of the same sequence?
The Kd was at least 20 µM.

What about the Kd [15, 33] of the same sequence?
Its Kd is at least 20 µM.

For SETAGNNNT, which IC50 [18, 28] is on record?
Its IC50 is at least 363 µM.

What about the IC50 [24] of the same sequence?
The IC50 was at least 98.4 µM.

Which IC50 [18, 31] does the source give for VPFIRNPNK here?
The IC50 was 47.2 µM.

How did the Kd [27] turn out when MTIASVPTSR was run?
The Kd was 1.01 µM.

With LNLSKFMMV as the sequence, how does the Kd [17, 31] read?
The Kd was 0.102 µM.
